Data from US20060015973, “Environmental stress-tolerant plants” (Independent Admin. Institute, Japan International Research …, published 2006).

Columns and labels:
[1] = molecular target: T1, GST-DREB1A (fragment encoded by cDNA nt 119-547) (Arabidopsis thaliana, UniProt Q9M0L0 SEQ:1-143); experiment: EMSA; room temperature 20 min; 6% gel 0.25x TBE; details: tags: N-terminal GST (pGEX-4T-1), E. coli JM109; label: 32P
Protocol: (§1) E. coli in which the fusion protein had been induced was suspended in 13 ml of buffer (10 mM Tris-HCl, 0.1 mM DTT, 0.1 mM phenylmethylsulfonyl fluoride). Then, 1% Triton X-100 and 1 mM EDTA were added thereto. After the cells were disrupted by sonication, the disrupted material was centrifuged at 22,000×g for 20 min. Then, the fusion protein of DREB1A (or DREB2A) and GST was purified by affinity chromatography using glutathione-Sepharose (Pharmacia) as a carrier. The resultant fusion protein was incubated with the DRE-containing 71 bp DNA fragment probe prepared by PCR and radiolabelled with ³²P at room temperature for 20 min. This mixture was electrophoresed using 6% acryl amide gel containing 0.25× Tris-borate-EDTA at 100 V for 2 hr. […] As is clear from this Figure, a band which migrated behind was detected when the fusion protein was incubated with the DRE-containing 71 bp DNA fragment probe (SEQ ID NO: 18). When a DNA fragment containing a varied DRE sequence (SEQ ID NO: 19, 20 or 21) was used, such a band was not detected. On the other hand, when a DNA fragment which was partly varied outside of DRE sequence (SEQ ID NO: 22 or 23) was used as a probe, a behind band was detected. Thus, it was shown that DREB1A or DREB2A protein specifically bound to DRE sequence.

[2] = molecular target: T2, GST-DREB2A (fragment encoded by cDNA nt 167-666) (Arabidopsis thaliana, UniProt O82132 SEQ:1-166); experiment: EMSA; room temperature 20 min; 6% gel 0.25x TBE; details: tags: N-terminal GST (pGEX-4T-1), E. coli JM109; label: 32P
Protocol: as §1

[3] = molecular target: T1, GST-DREB1A (fragment encoded by cDNA nt …); experiment: EMSA; shifted band; details: tags: N-terminal GST (pGEX-4T-1), E. coli JM109; label: 32P
Protocol: as §1

[4] = molecular target: T2, GST-DREB2A (fragment encoded by cDNA nt …); experiment: EMSA; shifted band; details: tags: N-terminal GST (pGEX-4T-1), E. coli JM109; label: 32P
Protocol: as §1

[5] = molecular target: T1, GST-DREB1A (fragment encoded by cDNA nt …); experiment: EMSA; no shifted band; details: tags: N-terminal GST (pGEX-4T-1), E. coli JM109; label: 32P
Protocol: as §1

[6] = molecular target: T2, GST-DREB2A (fragment encoded by cDNA nt …); experiment: EMSA; no shifted band; details: tags: N-terminal GST (pGEX-4T-1), E. coli JM109; label: 32P
Protocol: as §1

[7] = molecular target: DREB2A delta136-165 (constitutive active form) (Arabidopsis thaliana, UniProt O82132 SEQ:1-335, del136-165); experiment: cell_activity; GUS transactivation vs basal, T87 protoplasts; >3x full length
Protocol: Isolation of Arabidopsis T87 cell protoplasts and polyethylene glycol-mediated DNA transfection were performed as described previously (Abel and Theologis, 1994 Plant J. 5, 421-427). Five-day-old Arabidopsis T87 suspension cultured cells were collected by filtration and washed with water. Five grams of T87 cells were incubated with enzyme solution (0.4M mannitol, 5 mM MES-KOH (pH 5.7), 8 mM CaCl₂, 1% [w/v] Cellulase ONOZUKA R10 (Yakult), 0.5% [w/v] Macerozyme R10 (Yakult)) at room temperature for 2 hours with gentle agitation. Cells were passed through 125 μm nylon mesh, recovered by centrifugation at 450 g for 5 minutes at room temperature and washed twice in 30 ml of […], 70 mM CaCl₂, and 5 mM MES-KOH (pH 5.7). Finally protoplasts were resuspended in MaMg solution (0.4 M mannitol, 15 mM MgCl₂, 5 mM MES-KOH (pH 5.7)) and concentration was adjusted to 3×10⁶ cell/ml. The isolated protoplasts were kept on ice until use. Plasmid DNAs used for protoplast transformation were prepared by using a QINGEN plasmid isolation kit (QIAGEN) and dissolved in 10 mM Tris-HCl (pH 8.0), and 1 mM EDTA at 1 μg/μL. One hundred μL of protoplast suspension was mixed well with 10 μL of effector plasmid, 10 μL of reporter plasmid and 5 μL of 35S:Luciferase internal control plasmid. […]

T2 sequence (O82132 1-166): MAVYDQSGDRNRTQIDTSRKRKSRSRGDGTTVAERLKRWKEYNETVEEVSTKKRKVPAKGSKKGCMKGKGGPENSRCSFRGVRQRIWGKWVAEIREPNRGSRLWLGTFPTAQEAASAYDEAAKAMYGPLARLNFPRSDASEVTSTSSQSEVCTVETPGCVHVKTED
T1 sequence (Q9M0L0 1-143): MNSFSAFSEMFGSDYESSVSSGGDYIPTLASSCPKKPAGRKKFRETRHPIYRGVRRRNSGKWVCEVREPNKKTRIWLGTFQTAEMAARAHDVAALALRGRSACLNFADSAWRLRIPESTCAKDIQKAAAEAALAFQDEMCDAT
Chain of DREB2A delta136-165 (constitutive active form) (O82132 other isoform, or with tags, fused parts or gaps del136-165 | mutant): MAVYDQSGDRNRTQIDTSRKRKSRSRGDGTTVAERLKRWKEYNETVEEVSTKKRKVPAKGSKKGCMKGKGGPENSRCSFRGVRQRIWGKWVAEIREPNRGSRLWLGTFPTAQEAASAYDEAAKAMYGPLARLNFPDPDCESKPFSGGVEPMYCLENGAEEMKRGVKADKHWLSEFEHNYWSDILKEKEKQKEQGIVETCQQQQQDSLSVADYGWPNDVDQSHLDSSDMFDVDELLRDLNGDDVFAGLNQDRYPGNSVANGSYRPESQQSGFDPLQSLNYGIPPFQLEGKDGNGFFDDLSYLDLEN

B1: rd29A promoter 71 bp DRE probe (wild type) (dsDNA)
DNA 1: CAGTTTGAAAGAAAAGGGAAAAAAAGAAAAAATAAATAAAAGATATACTACCGACATGAGTTCCAAAAAGC
DNA 2: GCTTTTTGGAACTCATGTCGGTAGTATATCTTTTATTTATTTTTTCTTTTTTTCCCTTTTCTTTCAAACTG
[1]
  binding result: binds
[2]
  binding result: binds

B2: 71 bp probe, mutated outside DRE (SEQ 22) (dsDNA)
DNA 1: CAGTTTGAAAGAAAAGGGAAAAAAAGAAAAAATAAATAAAAGATATACTACCGACATGATCAACAAAAAGC
DNA 2: GCTTTTTGTTGATCATGTCGGTAGTATATCTTTTATTTATTTTTTCTTTTTTTCCCTTTTCTTTCAAACTG
[3]
  binding result: binds
[4]
  binding result: binds

B3: 71 bp probe, DRE mutant (SEQ 21) (dsDNA)
DNA 1: CAGTTTGAAAGAAAAGGGAAAAAAAGAAAAAATAAATAAAAGATATACTACCGACAAAAGTTCCAAAAAGC
DNA 2: GCTTTTTGGAACTTTTGTCGGTAGTATATCTTTTATTTATTTTTTCTTTTTTTCCCTTTTCTTTCAAACTG
[5]
  binding result: no binding
[6]
  binding result: no binding

B4: 71 bp probe, DRE mutant (SEQ 20) (dsDNA)
DNA 1: CAGTTTGAAAGAAAAGGGAAAAAAAGAAAAAATAAATAAAAGATATACTACTTTTATGAGTTCCAAAAAGC
DNA 2: GCTTTTTGGAACTCATAAAAGTAGTATATCTTTTATTTATTTTTTCTTTTTTTCCCTTTTCTTTCAAACTG
[5]
  binding result: no binding
[6]
  binding result: no binding

B5: 71 bp probe, DRE mutant (SEQ 19) (dsDNA)
DNA 1: CAGTTTGAAAGAAAAGGGAAAAAAAGAAAAAATAAATAAAAGATATATTTTCGACATGAGTTCCAAAAAGC
DNA 2: GCTTTTTGGAACTCATGTCGAAAATATATCTTTTATTTATTTTTTCTTTTTTTCCCTTTTCTTTCAAACTG
[5]
  binding result: no binding
[6]
  binding result: no binding

B6: DRE-containing 71 bp rd29A region in GUS reporter (3 tandem copies) (dsDNA)
DNA 1: CAGTTTGAAAGAAAAGGGAAAAAAAGAAAAAATAAATAAAAGATATACTACCGACATGAGTTCCAAAAAGC
DNA 2: GCTTTTTGGAACTCATGTCGGTAGTATATCTTTTATTTATTTTTTCTTTTTTTCCCTTTTCTTTCAAACTG
[7]
  activity: > 30 fold

B7: 71 bp probe, mutated outside DRE (SEQ 23) (dsDNA)
DNA 1: CAGTTTGAAAGAAAAGGGAAAAAAAGAAAAAATAAATAAAAGATATACTACCGACATGAGTTCGGTTAAGC
DNA 2: GCTTAACCGAACTCATGTCGGTAGTATATCTTTTATTTATTTTTTCTTTTTTTCCCTTTTCTTTCAAACTG
[3]
  binding result: binds
[4]
  binding result: binds
